According to patent publication US12559545 (VANDERBILT UNIVERSITY, dated 2026):

Columns and labels:
[1] = target: T1, HeV RBP on live Hendra virus (Hendra virus, UniProt O89343 182-603); test: cell-based or functional assay
T1 sequence: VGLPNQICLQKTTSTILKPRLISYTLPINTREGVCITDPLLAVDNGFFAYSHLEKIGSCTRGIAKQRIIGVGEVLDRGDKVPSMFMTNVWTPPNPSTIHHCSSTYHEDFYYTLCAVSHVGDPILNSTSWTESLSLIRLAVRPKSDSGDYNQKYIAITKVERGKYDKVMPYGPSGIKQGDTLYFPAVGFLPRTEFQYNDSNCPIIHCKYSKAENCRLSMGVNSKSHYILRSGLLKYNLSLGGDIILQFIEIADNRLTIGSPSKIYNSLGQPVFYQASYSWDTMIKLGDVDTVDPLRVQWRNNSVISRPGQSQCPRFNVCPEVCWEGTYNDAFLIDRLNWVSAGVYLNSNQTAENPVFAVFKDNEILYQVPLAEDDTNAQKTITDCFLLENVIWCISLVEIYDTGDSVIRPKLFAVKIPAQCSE

[2] = target: NiVB RBP on live Nipah virus Bangladesh (Nipah virus, strain Bangladesh, UniProt Q9IH62 182-602); test: cell-based or functional assay
[3] = target: T2, full-length NiVM-RBP expressed on the surface of transfected cells (Nipah virus, strain Malaysia, UniProt Q9IH62 182-602)
T2 sequence: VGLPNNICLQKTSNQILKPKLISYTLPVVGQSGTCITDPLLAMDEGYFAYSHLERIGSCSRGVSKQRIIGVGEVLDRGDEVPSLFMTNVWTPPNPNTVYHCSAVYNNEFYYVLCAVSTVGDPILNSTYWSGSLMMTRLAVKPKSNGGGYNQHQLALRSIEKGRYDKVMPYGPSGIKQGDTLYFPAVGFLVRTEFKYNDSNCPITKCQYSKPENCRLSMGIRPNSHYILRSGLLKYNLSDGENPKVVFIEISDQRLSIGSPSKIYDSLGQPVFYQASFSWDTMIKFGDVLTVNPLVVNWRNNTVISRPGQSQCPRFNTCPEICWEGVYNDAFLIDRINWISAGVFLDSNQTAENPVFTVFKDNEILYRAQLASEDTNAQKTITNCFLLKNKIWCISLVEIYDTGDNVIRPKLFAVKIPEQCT

[4] = target: full-length NiVB-RBP expressed on the surface of transfected cells (Nipah virus, strain Bangladesh, UniProt Q9IH62 182-602)
[5] = target: T3, full-length HeV-RBP expressed on the surface of transfected cells (Hendra virus, UniProt O89343 182-603)
T3 sequence: T1 sequence

[6] = target: T4, NiVM-RBP head domain (residues 183-602), recombinant soluble (Nipah virus, strain Malaysia, UniProt Q9IH62 183-602); test: ELISA, RBP head domain coated on plate, hybridoma IgG
T4 sequence: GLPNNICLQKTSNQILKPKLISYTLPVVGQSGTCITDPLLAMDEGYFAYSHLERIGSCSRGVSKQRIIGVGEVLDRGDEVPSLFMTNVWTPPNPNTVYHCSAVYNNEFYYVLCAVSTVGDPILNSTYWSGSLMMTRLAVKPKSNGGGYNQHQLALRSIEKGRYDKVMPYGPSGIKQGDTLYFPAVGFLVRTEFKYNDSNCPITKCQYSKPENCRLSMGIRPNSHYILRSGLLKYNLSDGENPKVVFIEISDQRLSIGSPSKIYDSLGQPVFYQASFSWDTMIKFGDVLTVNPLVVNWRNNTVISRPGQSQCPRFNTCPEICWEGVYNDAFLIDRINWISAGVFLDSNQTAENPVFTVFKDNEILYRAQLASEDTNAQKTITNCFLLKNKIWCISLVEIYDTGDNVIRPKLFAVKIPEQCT

[7] = target: T5, HeV-RBP head domain (residues 185-604), recombinant soluble (Hendra virus, UniProt O89343 185-603); test: as above
T5 sequence: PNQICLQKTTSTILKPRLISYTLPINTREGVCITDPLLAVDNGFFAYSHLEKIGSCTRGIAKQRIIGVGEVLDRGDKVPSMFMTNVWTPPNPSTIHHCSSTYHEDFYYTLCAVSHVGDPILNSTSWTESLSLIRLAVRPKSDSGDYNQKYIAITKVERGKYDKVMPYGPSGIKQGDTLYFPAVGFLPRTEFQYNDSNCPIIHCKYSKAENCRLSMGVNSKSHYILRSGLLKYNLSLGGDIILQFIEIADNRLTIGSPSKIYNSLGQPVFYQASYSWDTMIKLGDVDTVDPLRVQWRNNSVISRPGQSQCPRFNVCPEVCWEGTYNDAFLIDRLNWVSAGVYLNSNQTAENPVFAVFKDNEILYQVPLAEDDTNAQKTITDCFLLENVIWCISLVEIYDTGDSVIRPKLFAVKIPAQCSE

[8] = target: T6, NiVB-RBP head domain (residues 185-602), recombinant soluble (Nipah virus, strain Bangladesh, UniProt Q9IH62 185-602); test: as above
[9] = target: T4, NiVM-RBP head domain (residues …)
[10] = target: T5, HeV-RBP head domain (residues 185-604), …
[11] = target: T6, NiVB-RBP head domain (residues …)

B1: HENV-32 (antibody, V domains shown)
VH: QVQLVQSGAEVKKPGSSVKVSCKVSGGIFNRETINWVRQAPGQGLEWMGRITPIVDVPNYPRKFRGRVTITADKSTSTVYMELSGLRFEDTAIYFCARFRGHNYFDPWGQGTLVTVSS
VL: SYVLTQPPSVSVAPGQTARITCGGNNIGGKSVHWYQQKPGQAPVLVVYDDRDRPSGIPERFSGSNSGDTASLTISRVDAGDEADYFCQVWDNASDEAVFGGGTKLTVL
With B1 the “IC50, plaque reduction neutralization of live virus” value [1] was 0.27 µg/mL, the “IC50, plaque reduction neutralization of live virus” value [2] was 0.38 µg/mL and the EC50 [3] was 0.76 µg/mL. For the same binder, the EC50 [4] was 0.836 µg/mL, the EC50 [5] was 0.68 µg/mL and the “Area under the curve” value [6] was 8. For the same binder, the EC50 [6] was 0.42 µg/mL, the “Area under the curve” value [7] was 3.71 and the EC50 [7] was 0.36 µg/mL. The “Area under the curve” value [8] was 6.6 and the EC50 [8] was 0.96 µg/mL.

B2: HENV-32 Fab (Fab, V domains shown)
VH: B1 VH
VL: B1 VL
With B2 the Kd [9] was 2.2 nM, the Kd [10] was 2.1 nM and the Kd [11] was 2.8 nM.
